In IntAct's records for PubMed 15546359:

B1: Auxin-responsive protein IAA1 (Arabidopsis thaliana (Mouse-ear cress)), P49677 (parent)
chain: MEVTNGLNLKDTELRLGLPGAQEEQQLELSCVRSNNKRKNNDSTEESAPPPAKTQIVGWPPVRSNRKNNNNKNVSYVKVSMDGAPYLRKIDLKMYKNYPELLKALENMFKFTVGEYSEREGYKGSGFVPTYEDKDGDWMLVGDVPWDMFSSSCQKLRIMKGSEAPTAL
partner: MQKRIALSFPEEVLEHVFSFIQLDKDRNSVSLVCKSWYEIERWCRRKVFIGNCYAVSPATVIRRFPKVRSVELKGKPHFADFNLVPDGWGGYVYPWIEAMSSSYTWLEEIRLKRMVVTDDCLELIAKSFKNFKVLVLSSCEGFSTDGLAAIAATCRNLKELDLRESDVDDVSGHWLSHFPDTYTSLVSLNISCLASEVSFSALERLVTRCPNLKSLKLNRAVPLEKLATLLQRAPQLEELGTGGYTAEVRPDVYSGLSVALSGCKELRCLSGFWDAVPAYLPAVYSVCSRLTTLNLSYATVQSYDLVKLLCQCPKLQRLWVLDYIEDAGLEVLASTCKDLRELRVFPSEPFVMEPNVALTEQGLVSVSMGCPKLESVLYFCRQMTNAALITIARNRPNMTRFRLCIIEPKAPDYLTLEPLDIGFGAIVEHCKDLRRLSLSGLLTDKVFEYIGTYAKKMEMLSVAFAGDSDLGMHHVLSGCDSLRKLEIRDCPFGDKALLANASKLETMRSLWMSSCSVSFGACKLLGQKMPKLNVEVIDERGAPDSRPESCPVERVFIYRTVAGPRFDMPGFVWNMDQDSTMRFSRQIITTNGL

Variants of: B1
Details: with tir1_arath TIR1, Q570C0
For MEVTNGLNLKDTELRLGLPGAQEEQQLELSCVRSNNKRKNNDSTEESAPPPAKTQIVGWPSVRSNRKNNNNKNVSYVKVSMDGAPYLRKIDLKMYKNYPELLKALENMFKFTVGEYSEREGYKGSGFVPTYEDKDGDWMLVGDVPWDMFSSSCQKLRIMKGSEAPTAL [P61S], the “effect of a mutation on the interaction” value was “decreasing interaction”.
